This is an account of results in paper PMC5084080.

The target of this test is LarB1-His (Rhodococcus jostii). The test is described as follows: BLI. Background: BLI is a label-free optical method that tracks binding on a fibre tip over time.

In turn, “LarA-MBP (from UniProt H7C8I3 1-46) (natural protein)” gave a dissociation constant Kd of 440 nM.

The term Kd denotes the equilibrium constant for the complex coming apart. Low values mean higher affinity, high ones lower affinity.
